From publication PMC4911367

B1: wild-type (WT) human cardiac (ventricular/slow-twitch skeletal) myosin regulatory light chain (natural protein)
chain: MAPKKAKKRAGGANSNVFSMFEQTQIQEFKEAFTIMDQNRDGFIDKNDLRDTFAALGRVNVKNEEIDEMIKEAPGPINFTVFLTMFGEKLKGADPEETILNAFKVFDPEGKGVLKADYVREMLTTQAERFSKEEVDQMFAAFPPDVTGNLDYKNLVHIITHGEEKD

Experiments:
[1] = target: pyrene labeled rabbit skeletal F-actin (rabbit) (UniProt P68135); experiment: other fluorescence titration; 0.5 uM pyrene labeled F-actin titrated with myosin in 0.05 uM increments to ~2 fold molar excess, rigor conditions; excitation 340 nm, emission 407 nm; quadratic fit; apparent Kd and stoichiometry n
[2] = target: pyrene labeled rabbit skeletal F-actin (rabbit) (UniProt P68135)
[3] = target: pyrene labeled rabbit skeletal F-actin (rabbit) (UniProt P68135); experiment: stopped-flow pyrene fluorescence; 0.25 uM myosin with 0.25 uM pyrene labeled F-actin (0.25 uM phalloidin) in rigor buffer 0.4 M KCl, 1 mM DTT, 10 mM MOPS pH 7.0, mixed 1:1 with 10-150 uM MgATP; MgATP-induced dissociation, single exponential fit
[4] = target: RLC-depleted porcine cardiac (PC) myosin (porcine) (UniProt P79293); experiment: co-sedimentation; ~2.8 uM RLC-depleted PC myosin titrated with 0.1-14 uM human WT or IVS6-1 RLC (molar ratio 0.1-5.0) in 0.4 M KCl, 50 mM MOPS pH 7.0, 2 mM MgCl2, 1 mM DTT, with BSA, 30 min room temperature; myosin precipitated with 13 vol ice-cold water, pellet on SDS-PAGE, RLC/ELC band ratio; apparent Kd
[5] = target: RLC-depleted porcine cardiac (PC) myosin (porcine) (UniProt P79293); experiment: reconstitution of RLC-depleted skinned muscle strips, SDS-PAGE; skinned porcine papillary muscle strips depleted of RLC with CDTA/Triton X-100, incubated with 40 uM RLC-WT or IVS6-1 and 2 mM DTT in pCa 8 solution, then RLC and TnC; washed, SDS-PAGE

| Molecule | Kd [1] [nM] | stoichiometry N [1] | Km (actin) of actin-activated myosin ATPase activity [2] [µM] | Vmax of actin-activated myosin ATPase activity (F-actin 0.1-25 uM, ~1.9 uM myosin, 30°C) [2] [s⁻¹] | k1, MgATP-induced actin-myosin dissociation rate at 10 μM MgATP [3] [s⁻¹] | k1, MgATP-induced actin-myosin dissociation rate at 25 μM MgATP [3] [s⁻¹] | k1, MgATP-induced actin-myosin dissociation rate at 40 μM MgATP [3] [s⁻¹] | k1, MgATP-induced actin-myosin dissociation rate at 60 μM MgATP [3] [s⁻¹] | k1, MgATP-induced actin-myosin dissociation rate at 80 μM MgATP [3] [s⁻¹] | k1, MgATP-induced actin-myosin dissociation rate at 125 μM MgATP [3] [s⁻¹] | k1, MgATP-induced actin-myosin dissociation rate at 150 μM MgATP [3] [s⁻¹] | Kd [4] [nM] | percent fiber reconstitution [5] [%] |
| --- | --- | --- | --- | --- | --- | --- | --- | --- | --- | --- | --- | --- | --- |
| porcine cardiac myosin reconstituted with human cardiac RLC IVS6-1 (from UniProt P79293 1-1935; P10916 1-134) (complex) | 16.7 | 0.59 | 3.33 | 0.15 | 5.5 | 14.4 | 21 | 30.5 | 41.4 | 57.5 | 67.8 | – | – |
| porcine cardiac myosin reconstituted with human cardiac RLC WT (from UniProt P79293 1-1935; P10916 1-166) (complex) | 4.6 | 0.51 | 3.67 | 0.25 | 7.4 | 15.6 | 19.9 | 36 | 50.4 | 70.4 | 88.7 | – | – |
| human cardiac RLC IVS6-1 (c403-1G>C) splice site mutant protein (from UniProt P10916 1-134) (natural protein) | – | – | – | – | – | – | – | – | – | – | – | 4410 | 100 |
| native porcine cardiac (PC) myosin (from UniProt P79293 1-1935) (complex) | 2.9 | 0.47 | 1.93 | 0.24 | 6.2 | 15.8 | 24.5 | 33.4 | 47.2 | 65.9 | 86.8 | – | – |
| B1 | – | – | – | – | – | – | – | – | – | – | – | 1420 | 100 |
